The source of these data is the supplement of paper PMC9112550, “Optimization of the antimicrobial peptide Bac7 by deep mutational scanning” (BMC Biology, 2022).

This data set has as its system Escherichia coli TOP10. The data set can be described thus: shrunken log2 fold change of peptide-encoding DNA abundance (4.5 h post-induction vs induction); higher = less antimicrobial activity (less host growth inhibition). Particulars: time post-induction: 4.5 h; library: site-saturation at positions 5, 18, 19, 20.
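Note: peptides expressed intracellularly from a pBAD plasmid library in pooled LB shake-flask culture, induced with 0.3% L-arabinose, DNA abundance read by NGS, three biological replicates, DESeq2 with apeglm shrinkage.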

Regarding RRIRMRPPRLPRPRPRPNFSPRP, the “shrunken log2 fold change” value came to 0.0634.

RRIRWRPPRLPRPRPRPDHHPRP: the “shrunken log2 fold change” value is -0.445.

With RRIRLRPPRLPRPRPRPRETPRP, the “shrunken log2 fold change” value was -0.0213.

Regarding RRIRSRPPRLPRPRPRPWTKPRP, the “shrunken log2 fold change” value was -0.137.

For RRIRHRPPRLPRPRPRPVILPRP, the “shrunken log2 fold change” value is -1.12. The value for RRIRPRPPRLPRPRPRPWYMPRP was -0.247; that for RRIRHRPPRLPRPRPRPNKAPRP was 0.147; that for RRIRNRPPRLPRPRPRPEMNPRP was 0.0511. In the case of RRIRQRPPRLPRPRPRPCVTPRP, the “shrunken log2 fold change” value is -0.141. To RRIRRRPPRLPRPRPRPSDRPRP belongs -0.153; to RRIRFRPPRLPRPRPRPRIFPRP, -0.102.

For RRIRTRPPRLPRPRPRPEACPRP, the “shrunken log2 fold change” value is -0.1. To RRIRDRPPRLPRPRPRPWINPRP belongs 0.0363; to RRIRCRPPRLPRPRPRPACIPRP, -0.186; to RRIRKRPPRLPRPRPRPTPNPRP, 0.553. To RRIRNRPPRLPRPRPRPYWDPRP belongs -0.54. Take RRIRKRPPRLPRPRPRPNEEPRP: the “shrunken log2 fold change” value was -1.35e-05.

For RRIRFRPPRLPRPRPRPLSPPRP, the “shrunken log2 fold change” value was -0.476. Consider RRIRYRPPRLPRPRPRPWVYPRP, for which the “shrunken log2 fold change” value was -0.234. To RRIRLRPPRLPRPRPRPKELPRP belongs 0.0165; to RRIRPRPPRLPRPRPRPPKTPRP, 0.246. Consider RRIRTRPPRLPRPRPRPWKSPRP, for which the “shrunken log2 fold change” value is -0.0257. The value for RRIRSRPPRLPRPRPRPKTIPRP was -0.174; that for RRIRLRPPRLPRPRPRPLQAPRP was 0.128. The value for RRIRTRPPRLPRPRPRPVACPRP was -0.0699; that for RRIRKRPPRLPRPRPRPRHKPRP was 0.458. For RRIRNRPPRLPRPRPRPGWNPRP, the “shrunken log2 fold change” value was determined as 0.324. The value for RRIRERPPRLPRPRPRPSIAPRP was -0.259; that for RRIRQRPPRLPRPRPRPLFDPRP was -0.607; that for RRIRFRPPRLPRPRPRPDQMPRP was -0.155. To RRIRARPPRLPRPRPRPQKIPRP belongs -0.108. On to RRIRQRPPRLPRPRPRPGFCPRP, for which the “shrunken log2 fold change” value came out at 0.159. To RRIRHRPPRLPRPRPRPTGHPRP belongs 0.173; to RRIRMRPPRLPRPRPRPRKGPRP, 0.81; to RRIRHRPPRLPRPRPRPNVDPRP, 0.187. To RRIRYRPPRLPRPRPRPKDVPRP belongs -0.0107; to RRIRHRPPRLPRPRPRPFTLPRP, -0.312; to RRIRERPPRLPRPRPRPRRRPRP, 0.261. To RRIRYRPPRLPRPRPRPKRLPRP belongs -0.102. Regarding RRIRVRPPRLPRPRPRPLADPRP, the “shrunken log2 fold change” value is 0.279.

RRIRKRPPRLPRPRPRPGHQPRP: the “shrunken log2 fold change” value is -0.0847. The value for RRIRVRPPRLPRPRPRPCTFPRP was -0.0858; that for RRIRKRPPRLPRPRPRPYFWPRP was -0.0468. On to RRIRDRPPRLPRPRPRPRRTPRP, for which the “shrunken log2 fold change” value stood at 0.186. Regarding RRIRARPPRLPRPRPRPTNYPRP, the “shrunken log2 fold change” value was -0.137.

On to RRIRHRPPRLPRPRPRPYMMPRP, for which the “shrunken log2 fold change” value is -3.2. For the sequence RRIRDRPPRLPRPRPRPLDFPRP, the “shrunken log2 fold change” value came to 0.0675. In the case of RRIRFRPPRLPRPRPRPEHCPRP, the “shrunken log2 fold change” value was -0.0154.

As for RRIRPRPPRLPRPRPRPSKHPRP, the “shrunken log2 fold change” value is -0.441. To RRIRYRPPRLPRPRPRPNDWPRP belongs -0.116.
